# Assay results reported in US20040170601A1, “Method of improving the growth performance of an animal” (priority 2001, published 2004).
# “And” between values parts separate entries of the source, which are not always exact repeats. Identical values can stand only once. “Also recorded” adds a separate entry of the source.
# B1: interleukin 4 (protein, UniProt Q04745 25-133, looked up)
# Interleukin-4: HKCDITLQEIIKTLNILTARKNSCMELPVTDVFAAPENTTEKETFCRASTVLRHIYRHHTCMKSLLSGLDRNLSSMANMTCSVHEAKKSTLKDFLERLKTIMKEKYSKC
# notes: recombinant IL-4 protein
# Tests used:
# Assay type in all cases: in vivo, pigs
# [1] = system: Brachyspira (Serpulina) hyodysenteriae; assay: Example 13: swine dysentery challenge, IL-4 prophylactic
# Description: The aim of this example was to determine whether IL-4 could improve the health of pigs infected with an enteric inflammatory pathogen causing swine dysentery, Brachyspira (Serpulina) hyodysenteriae. A further aim was to determine whether IL-4 could improve the growth rate of pigs under conditions of challenge with swine dysentery.
# Male pigs with a mean starting weight of 6.5 kg, were allocated to treatment groups consisting of eight pigs (Table 10). Pigs were housed in group pens, with each pen containing a replicate from each of the treatment groups. One group of 8 pigs was housed in a separate room and left uninfected to act as untreated controls. Pigs were provided with pelleted feed and water ad libitum.
# Prior to swine dysentery challenge, pigs were treated with recombinant IL-4 or saline, as described in Table 10. Cytokines and the antibiotic, Lincocin, were delivered by intramuscular injection at intervals outlined in Table 11. Pigs were infected with Brachyspira hyodysenteriae at day 0, day 1 and day 2, given as an oral bolus of 120ml of spirochaete culture in log phase of growth, containing approximately […] cells.
# Faecal swabs and blood samples were taken from each pig at intervals described in Table 11. Faecal swabs were cultured for the presence of spirochaetes. Blood samples were assayed for immunological parameters as described in example 1 above. Pigs were weighed at weekly intervals throughout the experiment, which was terminated by euthanasia on days 19 and 20 after the initial challenge. At post mortem swabs from areas of the hindgut were cultured for the presence of spirochaetes, and the gross pathological condition of the gastro-intestinal tissue noted.
# [2] = system: Actinobacillus pleuropneumoniae; assay: Example 12: Actinobacillus pleuropneumoniae (App) challenge: growth, clinical signs, lung pathology
# Description: The following experiment was designed to determine whether IL-4 could improve the growth of immunologically challenged pigs compared to saline treated controls and positive controls treated with the non-steroidal anti-inflammatory drug (NSAID) Flunix. It was also devised to determine whether IL-4 could be delivered via plasmids.
# Male pigs, with a mean starting weight of 52 kg, were allocated to 5 treatment groups (Table 8). Pigs were housed in group pens, with each pen containing a replicate from each of the treatment groups. Pigs were provided with pelleted feed and water ad libitum.
# Recombinant IL-4 and saline were administered as 2 ml doses, given subcutaneously behind the ear. Plasmids were administered in 1 ml doses, given intramuscularly in the hind-leg. Flunix was administered as a 2 ml dose according to the manufacturer's instructions, and delivered intramuscularly in the neck. The timetable of administration is outlined in Table 9 below.
# (§1) Due to the intermittent availability of Actinobacillus pleuropneumoniae (App), the App challenge was performed separately on the 2 rooms, resulting in different time schedules for each room, as outlined in Table 9. Prior to each challenge, pigs were treated with recombinant cytokines, flunix or plasmids as described above; the timing of treatments with respect to challenge is described in Table 9. Pigs were anaesthetised and infected intratracheally with 7.5×10^5 […] on day 0.
# (§2) Briefly, assays were performed on blood samples using standard techniques, including: white blood cell counts performed using an automated cell counter; differential cell counts performed manually on stained blood smears; lymphocyte subset enumeration via flow cytometry; neutrophil function determined by flow cytometry; lymphocyte proliferation determined using a thymidine incorporation assay in response to mitogens; total IgG and IgA levels were identified using indirect sandwich ELISA; levels of mRNA for pro-inflammatory cytokines was detected by RT-PCR. TNF levels were additionally measured in serum by bioassay using L929 target cells. Pigs were weighed weekly from delivery of plasmids and for 2 weeks after challenge.
# IL-4 delivered as a recombinant caused a reduction of 36% in the presence of clinical symptoms compared to pigs treated with saline, while IL-4 delivered in plasmid form produced a reduction of 62% compared to saline-treated controls (45% reduction compared to plasmid-treated controls).
# At the conclusion of the trial, pigs were euthanased and the lungs removed for post-mortem examination. Lungs were scored for pleurisy from 0-5 (FIG. 79) and the degree of pleuropneumonia was determined by weighing affected lung and expressed as a percentage of total lung weight (FIG. 80).
# TNFα = assay: Example 12: TNFα in serum after App challenge (bioassay, L929 target cells); details: day 13 after challenge
# Description: as §1
# (§3) […] Blood was assayed for immunological parameters as previously described.
# as §2
# IL-6 = assay: Example 12: IL-6 in peripheral blood by RT-PCR after App challenge; details: day 13 after challenge
# Description: as §1, §3, §2
# [3] = day 7 prior to challenge to slaughter at days 19 and 20
molecule,measurement,setting,value
B1,spirochaete shedding in faeces (faecal culture),[1]; after challenge,decreasing levels of spirochaete shedding by day 14 after challenge
same,reduction in the number of spirochaetes compared to saline treated pigs,[1]; anterior colon,93%
same,gross pathology associated with dysentery,"[1]; anterior colon, post mortem","reduced the signs of pathology associated with dysentery, and the severity of the pathology compared to saline in the anterior colon"
same,reduction in the number of spirochaetes compared to saline treated pigs,[1]; caecum,91%
same,improvement in gain compared to saline or antibiotic treatment,[1]; [3],24%
same,total weight gained over the challenge period,[1]; [3],8.5 kg
same,improvement in end weight vs saline treated pigs,[1]; days 19 and 20,11% and 12%
same,mean weight at the end of the trial,[1]; days 19 and 20 after infection,15.1 kg
same,reduction in the number of spirochaetes compared to saline treated pigs,[1]; faecal,86%
same,heavier than pigs treated with Lincocin at the end of the trial,"[1]; pig, in vivo",15%
same,number of spirochaetes cultured from the hindgut at post mortem,"[1]; pig, in vivo",significantly reduced the number of spirochaetes residing in the gut compared to saline controls; also recorded: performed as well as the Lincocin antibiotic treatment in reducing the number of spirochaetes in the caecum and colon
same,variability of weight,"[1]; pig, in vivo",reduce variability by increasing the weight gained by smaller pigs
same,incidence of clinical signs in faeces (of 8 pigs),[1]; post mortem,3 pigs
same,pigs showing bloody and mucoid faeces (of 8 pigs),[1]; post mortem,1 pig
same,reduction in the number of spirochaetes compared to saline treated pigs,[1]; posterior colon,84%
same,gross pathology associated with dysentery,"[1]; posterior colon, post mortem",completely prevented the development of pathology in the posterior colon
same,reduction in the presence of clinical symptoms compared to saline,[2]; 30 visits in first week of challenge,36%
same,heavier than saline treated peers at the termination of the experiment,[2]; after 2 weeks of challenge,4.8 kg
same,improvement in growth vs saline,[2]; after 2 weeks of challenge,73%
same,clinical signs of disease,[2]; first week of challenge,slightly reduced clinical signs of disease compared to saline-treated controls
same,growth during the (first) week of App challenge,"[2]; pig, in vivo",positive growth during the week of challenge
same,growth in the second week of challenge,"[2]; pig, in vivo",continued to gain weight
same,pleurisy at necropsy (score 0-5),"[2]; pig, in vivo",same level of pleurisy as saline-treated controls
same,weight gain over the 2 week period following challenge with App,"[2]; pig, in vivo","increased weight gain compared to saline-treated controls, although this result was not statistically significant"
same,percentage of lung affected by App lesions,[2]; vs saline-treated controls,greatly reduced
same,TNFα production (serum),TNFα,reduced levels of TNF production
same,production of IL-6,IL-6,undetectable levels
